US20230348852A1, “METHODS AND COMPOSITIONS FOR OCULAR CELL THERAPY” (NOVARTIS AG, priority 2020, published 2023)

Key:
[1] = system: beta-2-microglobulin gene; experiment: CRISPR/Cas9-mediated deletion of B2M in LSCs (nucleofection, FACS); assay type: cell-based, human; conditions: nucleofection with Cas9 protein SEQ ID NO: 107, LSCs at passage 0, FACS
Procedure: LSCs at passage 0 were trypsinized with TryLE®Express Enzym (ThermoFisher, Cat #12605010) for 15 min in 5%CO2 at 37° C. After scraping the cells, the reaction was stopped by using cell culture medium containing 10% Serum and transferred to a falcon tube. After counting cells using Vi-cell 200′000 cells were prepared per reaction by transferring 200′000 cells in single tubes and centrifuged at 1000 rpm for 5 min.
The supernatant was aspirated using manually pipetting to avoid cell loss and the cells were resuspended in the Stem cell nucleofector solution II (Lonza, Cat #VPH-5022). Resuspend cells in nucleofector solution immediately before adding the Cas9 protein:sgRNA mixture. A stock of 100 µM (3.23 µg/µl) was prepared resuspending 5.1 nanomoles of single-guideRNA (sgRNA) in 51 µl 10 mM Tris buffer pH7.4. […]
In order to prevent cells sticking to the wall, collection tubes were filled with FACS buffer for 30 minutes before the sort and aspirated before adding the collection medium. […] FACS data were analyzed using BD FACSDiva software and FlowJo software.

[2] = system: genomic DNA purified from male human peripheral blood mononuclear cells; experiment: Biochemical assay for potential off-target genomic sites cleaved by Cas9 and B2M guides; conditions: number of potential off-target sites, guide concentration 64 nM
Procedure: A biochemical method (See, e.g., Cameron et al., Nature Methods. 6, 600-606; 2017) was used to determine potential off-target genomic sites cleaved by Cas9 and selected B2M guides. Guides showing B2M indel activity were tested for potential off-target genomic cleavage sites with this assay. […] The number of potential off-target sites detected using a guide concentration of 64 nM in the biochemical assay are shown in Table 10. As a result of this analysis, several gRNAs were selected for analysis of potential off-target activity in limbal stem cells.

[3] = system: B2M; experiment: Targeted PCR and NGS (amplicon sequencing) of on-target and off-target sites in genome-edited LSCs; assay type: cell-based, human; conditions: for Number of sites positive for off-target activity in LSCs: of the potential off-target loci sequenced; for B2M purified rhAmpSeq indel: purified (B2M negative) LSC populations
Procedure: Potential CRISPR/Cas9-mediated cutting sites identified above were evaluated using targeted PCR and NGS in genome-edited expanded LSCs.
Selected sgRNAs (SEQ ID NO: 120, 162, 166, 167, 171, and 175) were further analyzed by amplicon sequencing in edited and non-edited cells. Primers flanking the potential off-target sites for each guide were used to detect indels by NGS analysis in edited LSCs and non-edited peripheral blood mononuclear cells. Sites that had either (1) a difference in mean indel percentage between edited and unedited cells greater than 0.5%; or (2) a p value less than 0.05 between edited and unedited indel were further analyzed. NGS sequence reads for such sites were assessed for characteristic indel patterns near the putative Cas9 cut site. Based on the results, we could assess the specificity of gRNAs and their suitability for therapeutic applications.

B1: 1-CR004366: gRNA targeting human B2M; targeting domain SEQ ID NO: 108; sgRNA SEQ ID NO: 120; from Dharmacon (nucleic acid)
guide: GAGUAGCGCGAGCACAGCUAGUUUUAGAGCUAGAAAUAGCAAGUUAAAAUAAGGCUAGUCCGUUAUCAACUUGAAAAAGUGGCACCGAGUCGGUGCUUUU
modifications: listed as RNA, chemistry not given here
notes: gRNA targeting human B2M; from Dharmacon
- LSCs not expressing B2M and HLA I (HLA A, B and C) on cell surface [1]: about 70%
- off-target Site_ Count [2]: 69
- validated indels for off-target activity in LSCs ([3]; amplicon sequencing of potential off-target loci): zero
- Number of sites positive for off-target activity in LSCs [3]: 0 of 64
- Number of sites positive for off-target activity in LSCs ([3]; listed as SEQ ID NO: 120): no predicted sites tested positive for off-target activity
- B2M purified rhAmpSeq indel [3]: 99.60±0.44%
- B2M purified rhAmpSeq indel ([3]; listed as SEQ ID NO: 120): ~ 99%
